Test results reported in US20100120894A1 (UNIVERSITY OF MASSACHUSETTS, published 2010).

Experiments:
[1] = molecular target: T1, ASC-YFP stably expressed in HEK293 cells (UniProt Q9ULZ3 1-195); assay: confocal microscopy, HEK293-ASC-YFP cells transfected with PYD-CFP
T1 construct: also called YFP-ASC; HEK293-ASC-YFP; not shown: YFP
Experimental: Fluorescence intensities of the green (YFP-ASC) and red (PYD-CFP) channels were quantified along selected lines (white lines) and the percentage of ASC-YFP speckles per transfected cells assessed (panel b). c) 293T cells were transfected with expression plasmids encoding HAtagged ASC and CFP-tagged constructs as in panel a. The protein levels of the CFP-tagged PYD proteins in cell lysates were assessed by immunoblot analysis (INPUT, upper panels). Cell extracts were immunoprecipitated (IP) with anti-HA antibodies and immunoblotted (WB) with anti-HA antibody and anti-CFP antibody (lower panel). d) ASC was immunoprecipitated from THP-1 cell lysates primed with Sendai virus, whereas beads without anti-ASC antibody served as a negative control. The presence of ASC, PYHIN-2 and AIM2 was assessed by immunoblot analysis in the cell lysate and the ASC immunoprecipitation. The band above the AIM2 band in the ASC immunoprecipitation corresponds to the heavy chain of the anti-ASC antibody that is also detected by the secondary antibody. E) 293T cells were transfected with a multimerized NF-″B luciferase reporter construct together with fixed amounts of constructs as in (a) alone or together with increasing amounts of ASC. Cellular NF-″B activation was quantified in cell lysates 24 hours after transfection. Data of one representative experiment out of three (panels a, b, c and d) or two (panel e) are depicted.
To study the possibility that these PYHIN proteins associated with ASC in the cytosol, C-terminally tagged CFP PYD-domain fusions were generated. Of note, the putative nuclear localization sequences were predicted to localize to the […] of these molecules. Consistent with these predictions, all of the PYD-CFP fusion proteins were localized in the cytoplasm and formed large cytosolic aggregates in a portion of the cells (FIG. 6).

HA-tagged ASC = HA-tagged ASC (human, UniProt Q9ULZ3 1-195, limits assumed); assay: cell-based or functional assay
Sequence of HA-tagged ASC (Q9ULZ3 whole entry): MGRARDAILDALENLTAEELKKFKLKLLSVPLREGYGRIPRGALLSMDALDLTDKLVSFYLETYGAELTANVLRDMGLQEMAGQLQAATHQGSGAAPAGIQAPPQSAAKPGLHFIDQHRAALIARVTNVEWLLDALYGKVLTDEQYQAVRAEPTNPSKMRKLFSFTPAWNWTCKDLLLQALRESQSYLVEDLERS

T1 sequence (Q9ULZ3 whole entry): as above

Binder | binding result [1] | NF-kappaB luciferase reporter activation in 293T cells (HA-tagged ASC)
PYHIN1-PYD (1-84) C-terminally tagged with CFP (other, human, UniProt Q6K0P9 1-84, looked up, range 1-84; also called IFIX PYD; not shown: C-terminal CFP from vector pEFBOS-C-term-CFP) MANNYKKIVLLKGLEVINDYHFRIVKSLLSNDLKLNPKMKEEYDKIQIADLMEEKFPGDAGLGKLIEFFKEIPTLGDLAETLKR | no binding | –
Full length human AIM2 (AS 1-356) C-terminally tagged with CFP (other, UniProt O14862 1-343, looked up, not shown: large carriers) MESKYKEILLLTGLDNITDEELDRFKFFLSDEFNIATGKLHTANRIQVATLMIQNAGAVSAVMKTIRIFQKLNYMLLAKRLQEEKEKVDKQYKSVTKPKPLSQAEMSPAASAAIRNDVAKQRAAPKVSPHVKPEQKQMVAQQESIREGFQKRCLPVMVLKAKKPFTFETQEGKQEMFHATVATEKEFFFVKVFNTLLKDKFIPKRIIIIARYYRHSGFLEVNSASRVLDAESDQKVNVPLNIIRKAGETPKINTLQTQPLGTIVNGLFVVQKVTEKKKNILFDLSDNTGKMEVLGVRNEDTMKCKEGDKVRLTFFTLSKNGEKLQLTSGVHSTIKVIKAKKKT | – | ≤ 60 fold

The next lines start with the values.

binding result [1] | NF-kappaB luciferase reporter activation in 293T cells (HA-tagged ASC) | Binder
no binding | – | PYHIN3-PYD (1-84) C-terminally tagged with CFP (other, human, UniProt P41218 1-84, looked up, range 1-84; also called MNDA PYD; not shown: C-terminal CFP from vector pEFBOS-C-term-CFP) MVNEYKKILLLKGFELMDDYHFTSIKSLLAYDLGLTTKMQEEYNRIKITDLMEKKFQGVACLDKLIELAKDMPSLKNLVNNLRK
no binding | – | PYHIN2-PYD (1-84) C-terminally tagged with CFP (other, human, UniProt Q16666 1-84, looked up, range 1-84; also called IFI16 PYD; not shown: C-terminal CFP from vector pEFBOS-C-term-CFP) MGKKYKNIVLLKGLEVINDYHFRMVKSLLSNDLKLNLKMREEYDKIQIADLMEEKFRGDAGLGKLIKIFEDIPTLEDLAETLKK
